To fix the notation:
B1: GpH7-A5/GpH7-B3 variant S324_01G/GpL16-k0 (heterodimerized antibody, He Ab) (antibody, human IgG1, kappa)
heavy 1: not shown
heavy 2: not shown
light: DIVMTQSPLSLPVTPGEPASISCQASESLVHSNRNTYLHWYLQKPGQSPQLLIYKVSNRFSGVPDRFSGSGSGTDFTLKISRVEAEDVGVYYCSQNTHVPPTFGQGTKVEIERTVAAPSVFIFPPSDEQLKSGTASVVCLLNNFYPREAKVQWKVDNALQSGNSQESVTEQDSKDSTYSLSSTLTLSKADYEKHKVYACEVTHQGLSSPVTKSFNRGEC
notes: Mutation in one H chain only; also called S324_01G He Ab
B2: GpH7-B3 variant S324_01G/GpL16-k0 (homodimerized antibody, Ho Ab) (antibody, human IgG1, kappa)
heavy: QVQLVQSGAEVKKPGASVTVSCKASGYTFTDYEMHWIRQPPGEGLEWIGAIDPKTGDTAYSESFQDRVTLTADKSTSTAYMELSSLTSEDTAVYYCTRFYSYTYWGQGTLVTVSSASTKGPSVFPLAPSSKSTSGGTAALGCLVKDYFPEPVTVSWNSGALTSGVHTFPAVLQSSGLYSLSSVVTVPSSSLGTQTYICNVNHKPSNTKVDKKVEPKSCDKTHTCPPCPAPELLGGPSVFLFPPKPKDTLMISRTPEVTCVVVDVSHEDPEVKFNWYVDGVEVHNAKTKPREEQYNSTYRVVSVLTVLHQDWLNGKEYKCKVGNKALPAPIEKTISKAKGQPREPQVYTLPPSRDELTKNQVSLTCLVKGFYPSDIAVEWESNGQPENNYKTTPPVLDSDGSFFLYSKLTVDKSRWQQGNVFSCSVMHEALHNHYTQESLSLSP
light: DIVMTQSPLSLPVTPGEPASISCQASESLVHSNRNTYLHWYLQKPGQSPQLLIYKVSNRFSGVPDRFSGSGSGTDFTLKISRVEAEDVGVYYCSQNTHVPPTFGQGTKVEIERTVAAPSVFIFPPSDEQLKSGTASVVCLLNNFYPREAKVQWKVDNALQSGNSQESVTEQDSKDSTYSLSSTLTLSKADYEKHKVYACEVTHQGLSSPVTKSFNRGEC
notes: Mutation in both H chains; also called S324_01G Ho Ab
B3: GpH7-B3 variant S239_18N/GpL16-k0 (homodimerized antibody, Ho Ab) (antibody, human IgG1, kappa)
heavy: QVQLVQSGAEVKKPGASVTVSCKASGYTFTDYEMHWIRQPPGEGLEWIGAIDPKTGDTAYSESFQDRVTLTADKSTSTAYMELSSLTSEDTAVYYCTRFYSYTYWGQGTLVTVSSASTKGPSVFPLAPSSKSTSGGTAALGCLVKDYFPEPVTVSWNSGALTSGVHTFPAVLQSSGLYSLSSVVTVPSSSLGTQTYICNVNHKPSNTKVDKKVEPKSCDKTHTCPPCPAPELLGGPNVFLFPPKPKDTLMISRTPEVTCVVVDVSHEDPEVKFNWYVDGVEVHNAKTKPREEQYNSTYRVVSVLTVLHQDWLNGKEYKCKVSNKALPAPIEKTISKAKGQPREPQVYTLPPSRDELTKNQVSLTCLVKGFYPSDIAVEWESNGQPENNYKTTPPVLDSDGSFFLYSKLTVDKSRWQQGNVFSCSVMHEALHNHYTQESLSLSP
light: DIVMTQSPLSLPVTPGEPASISCQASESLVHSNRNTYLHWYLQKPGQSPQLLIYKVSNRFSGVPDRFSGSGSGTDFTLKISRVEAEDVGVYYCSQNTHVPPTFGQGTKVEIERTVAAPSVFIFPPSDEQLKSGTASVVCLLNNFYPREAKVQWKVDNALQSGNSQESVTEQDSKDSTYSLSSTLTLSKADYEKHKVYACEVTHQGLSSPVTKSFNRGEC
notes: Mutation in both H chains; also called S239_18N Ho Ab
B4: GpH7-B3 variant S324_14T/GpL16-k0 (homodimerized antibody, Ho Ab) (antibody, human IgG1, kappa)
heavy: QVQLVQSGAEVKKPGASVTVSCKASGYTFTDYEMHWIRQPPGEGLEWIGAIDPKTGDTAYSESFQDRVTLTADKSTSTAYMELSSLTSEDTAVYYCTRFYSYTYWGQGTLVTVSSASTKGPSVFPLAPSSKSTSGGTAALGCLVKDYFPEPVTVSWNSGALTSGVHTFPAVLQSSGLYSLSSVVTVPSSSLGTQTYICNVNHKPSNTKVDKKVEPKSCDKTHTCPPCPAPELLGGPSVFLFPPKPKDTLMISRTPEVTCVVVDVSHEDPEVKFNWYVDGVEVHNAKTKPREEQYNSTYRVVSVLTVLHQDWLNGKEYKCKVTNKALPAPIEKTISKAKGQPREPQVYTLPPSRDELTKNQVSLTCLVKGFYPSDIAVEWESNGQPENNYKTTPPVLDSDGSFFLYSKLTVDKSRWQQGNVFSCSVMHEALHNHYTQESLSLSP
light: DIVMTQSPLSLPVTPGEPASISCQASESLVHSNRNTYLHWYLQKPGQSPQLLIYKVSNRFSGVPDRFSGSGSGTDFTLKISRVEAEDVGVYYCSQNTHVPPTFGQGTKVEIERTVAAPSVFIFPPSDEQLKSGTASVVCLLNNFYPREAKVQWKVDNALQSGNSQESVTEQDSKDSTYSLSSTLTLSKADYEKHKVYACEVTHQGLSSPVTKSFNRGEC
notes: Mutation in both H chains; also called S324_14T Ho Ab
B5: GpH7-B3 variant S337_01G/GpL16-k0 (homodimerized antibody, Ho Ab) (antibody, human IgG1, kappa)
heavy: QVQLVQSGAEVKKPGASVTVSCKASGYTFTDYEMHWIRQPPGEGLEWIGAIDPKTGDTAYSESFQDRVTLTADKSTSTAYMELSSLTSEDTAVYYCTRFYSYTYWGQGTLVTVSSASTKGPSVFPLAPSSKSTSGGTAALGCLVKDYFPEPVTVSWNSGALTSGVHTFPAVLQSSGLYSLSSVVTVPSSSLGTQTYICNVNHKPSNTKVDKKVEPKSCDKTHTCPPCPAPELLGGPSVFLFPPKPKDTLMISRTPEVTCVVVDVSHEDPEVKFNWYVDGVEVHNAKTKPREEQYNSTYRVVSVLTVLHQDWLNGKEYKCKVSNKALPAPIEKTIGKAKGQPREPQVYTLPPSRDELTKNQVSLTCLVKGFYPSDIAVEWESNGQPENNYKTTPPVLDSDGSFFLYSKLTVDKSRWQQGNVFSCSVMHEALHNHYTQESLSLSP
light: DIVMTQSPLSLPVTPGEPASISCQASESLVHSNRNTYLHWYLQKPGQSPQLLIYKVSNRFSGVPDRFSGSGSGTDFTLKISRVEAEDVGVYYCSQNTHVPPTFGQGTKVEIERTVAAPSVFIFPPSDEQLKSGTASVVCLLNNFYPREAKVQWKVDNALQSGNSQESVTEQDSKDSTYSLSSTLTLSKADYEKHKVYACEVTHQGLSSPVTKSFNRGEC
notes: Mutation in both H chains; also called S337_01G Ho Ab
B6: GpH7-B3 variant Y296_20W/GpL16-k0 (homodimerized antibody, Ho Ab) (antibody, human IgG1, kappa)
heavy: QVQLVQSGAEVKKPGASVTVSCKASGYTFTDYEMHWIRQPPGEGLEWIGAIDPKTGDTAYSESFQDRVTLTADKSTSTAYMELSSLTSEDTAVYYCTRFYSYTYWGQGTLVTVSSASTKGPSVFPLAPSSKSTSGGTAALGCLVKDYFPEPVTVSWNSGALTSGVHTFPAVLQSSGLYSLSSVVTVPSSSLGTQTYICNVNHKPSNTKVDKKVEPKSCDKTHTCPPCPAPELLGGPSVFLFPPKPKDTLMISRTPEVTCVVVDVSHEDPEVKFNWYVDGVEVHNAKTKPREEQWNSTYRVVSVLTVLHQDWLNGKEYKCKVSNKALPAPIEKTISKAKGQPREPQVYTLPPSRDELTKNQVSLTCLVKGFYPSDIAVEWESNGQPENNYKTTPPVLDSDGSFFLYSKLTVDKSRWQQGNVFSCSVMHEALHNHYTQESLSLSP
light: DIVMTQSPLSLPVTPGEPASISCQASESLVHSNRNTYLHWYLQKPGQSPQLLIYKVSNRFSGVPDRFSGSGSGTDFTLKISRVEAEDVGVYYCSQNTHVPPTFGQGTKVEIERTVAAPSVFIFPPSDEQLKSGTASVVCLLNNFYPREAKVQWKVDNALQSGNSQESVTEQDSKDSTYSLSSTLTLSKADYEKHKVYACEVTHQGLSSPVTKSFNRGEC
notes: Mutation in both H chains; also called Y296_20W Ho Ab
B7: GpH7-A5/GpH7-B3 variant S239_10E/GpL16-k0 (heterodimerized antibody, He Ab) (antibody, human IgG1, kappa)
heavy 1: not shown
heavy 2: not shown
light: DIVMTQSPLSLPVTPGEPASISCQASESLVHSNRNTYLHWYLQKPGQSPQLLIYKVSNRFSGVPDRFSGSGSGTDFTLKISRVEAEDVGVYYCSQNTHVPPTFGQGTKVEIERTVAAPSVFIFPPSDEQLKSGTASVVCLLNNFYPREAKVQWKVDNALQSGNSQESVTEQDSKDSTYSLSSTLTLSKADYEKHKVYACEVTHQGLSSPVTKSFNRGEC
notes: Mutation in one H chain only; also called S239_10E He Ab
B8: GpH7-B3 variant S298_03V/GpL16-k0 (homodimerized antibody, Ho Ab) (antibody, human IgG1, kappa)
heavy: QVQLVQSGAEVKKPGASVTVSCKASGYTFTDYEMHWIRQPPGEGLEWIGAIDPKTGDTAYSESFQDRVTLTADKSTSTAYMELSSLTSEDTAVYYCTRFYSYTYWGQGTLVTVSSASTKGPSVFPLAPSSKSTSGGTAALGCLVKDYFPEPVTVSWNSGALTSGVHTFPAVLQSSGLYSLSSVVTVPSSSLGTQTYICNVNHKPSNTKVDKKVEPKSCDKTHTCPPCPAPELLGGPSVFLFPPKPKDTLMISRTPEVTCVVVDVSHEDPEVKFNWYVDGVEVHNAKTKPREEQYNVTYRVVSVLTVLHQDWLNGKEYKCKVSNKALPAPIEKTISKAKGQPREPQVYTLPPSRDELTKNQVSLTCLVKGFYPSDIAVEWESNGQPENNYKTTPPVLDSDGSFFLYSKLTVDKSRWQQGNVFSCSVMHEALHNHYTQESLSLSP
light: DIVMTQSPLSLPVTPGEPASISCQASESLVHSNRNTYLHWYLQKPGQSPQLLIYKVSNRFSGVPDRFSGSGSGTDFTLKISRVEAEDVGVYYCSQNTHVPPTFGQGTKVEIERTVAAPSVFIFPPSDEQLKSGTASVVCLLNNFYPREAKVQWKVDNALQSGNSQESVTEQDSKDSTYSLSSTLTLSKADYEKHKVYACEVTHQGLSSPVTKSFNRGEC
notes: Mutation in both H chains; also called S298_03V Ho Ab
B9: GpH7-B3 variant S324_20W/GpL16-k0 (homodimerized antibody, Ho Ab) (antibody, human IgG1, kappa)
heavy: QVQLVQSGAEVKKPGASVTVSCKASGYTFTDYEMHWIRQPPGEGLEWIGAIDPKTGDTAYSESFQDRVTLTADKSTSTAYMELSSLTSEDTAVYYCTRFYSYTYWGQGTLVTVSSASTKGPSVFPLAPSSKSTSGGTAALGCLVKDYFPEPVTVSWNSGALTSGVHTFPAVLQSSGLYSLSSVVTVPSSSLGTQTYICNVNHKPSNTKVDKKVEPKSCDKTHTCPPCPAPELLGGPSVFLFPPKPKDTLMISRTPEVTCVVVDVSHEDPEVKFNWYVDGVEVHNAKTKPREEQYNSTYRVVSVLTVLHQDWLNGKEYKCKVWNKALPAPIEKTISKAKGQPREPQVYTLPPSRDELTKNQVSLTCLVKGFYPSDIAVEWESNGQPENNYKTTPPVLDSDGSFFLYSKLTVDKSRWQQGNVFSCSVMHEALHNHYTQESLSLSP
light: DIVMTQSPLSLPVTPGEPASISCQASESLVHSNRNTYLHWYLQKPGQSPQLLIYKVSNRFSGVPDRFSGSGSGTDFTLKISRVEAEDVGVYYCSQNTHVPPTFGQGTKVEIERTVAAPSVFIFPPSDEQLKSGTASVVCLLNNFYPREAKVQWKVDNALQSGNSQESVTEQDSKDSTYSLSSTLTLSKADYEKHKVYACEVTHQGLSSPVTKSFNRGEC
notes: Mutation in both H chains; also called S324_20W Ho Ab
B10: GpH7-B3 variant S239_10E/GpL16-k0 (homodimerized antibody, Ho Ab) (antibody, human IgG1, kappa)
heavy: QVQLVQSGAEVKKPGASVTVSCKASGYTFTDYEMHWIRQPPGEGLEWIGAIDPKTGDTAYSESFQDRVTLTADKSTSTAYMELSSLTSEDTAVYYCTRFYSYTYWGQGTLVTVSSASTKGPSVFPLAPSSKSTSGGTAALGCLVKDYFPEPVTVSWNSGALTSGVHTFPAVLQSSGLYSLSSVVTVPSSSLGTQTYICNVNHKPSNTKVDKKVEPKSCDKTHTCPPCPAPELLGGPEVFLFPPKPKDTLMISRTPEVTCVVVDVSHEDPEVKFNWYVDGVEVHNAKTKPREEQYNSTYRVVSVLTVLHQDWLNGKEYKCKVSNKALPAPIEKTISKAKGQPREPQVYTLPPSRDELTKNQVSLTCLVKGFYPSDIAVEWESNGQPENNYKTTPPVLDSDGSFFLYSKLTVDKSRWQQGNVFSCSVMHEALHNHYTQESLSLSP
light: DIVMTQSPLSLPVTPGEPASISCQASESLVHSNRNTYLHWYLQKPGQSPQLLIYKVSNRFSGVPDRFSGSGSGTDFTLKISRVEAEDVGVYYCSQNTHVPPTFGQGTKVEIERTVAAPSVFIFPPSDEQLKSGTASVVCLLNNFYPREAKVQWKVDNALQSGNSQESVTEQDSKDSTYSLSSTLTLSKADYEKHKVYACEVTHQGLSSPVTKSFNRGEC
notes: Mutation in both H chains; also called S239_10E Ho Ab

Drawing on US20180155451A1 (published 2018), this text covers He/Con_3a and Ho/Con_3a for ten molecules.

The experiment deals with T1, FcγRIIIa extracellular domain with C-terminal His tag (human, UniProt P08637 17-208).
T1 construct: extracellular domain; also called 3a; FcgRIIIa
T1 sequence (P08637 17-208): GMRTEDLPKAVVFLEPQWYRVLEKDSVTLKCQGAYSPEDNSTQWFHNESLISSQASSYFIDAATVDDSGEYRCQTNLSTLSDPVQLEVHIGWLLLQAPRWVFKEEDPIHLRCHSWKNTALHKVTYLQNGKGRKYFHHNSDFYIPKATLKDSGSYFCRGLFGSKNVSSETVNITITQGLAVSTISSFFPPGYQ
The experiment in a line: SPR (Biacore), antibody captured on antigen-peptide chip, FcγR analyte, relative binding. For orientation: SPR reads the build-up and loss of mass on a sensor chip optically.
In the case of B1, the He/Con_3a was 105 % of GpH7-A5/GpH7-B3/GpL16-k0 (=100).
Regarding B2, the Ho/Con_3a is 119 % of GpH7-B3/GpL16-k0 (=100).
In the case of B3, the Ho/Con_3a is 116 % of GpH7-B3/GpL16-k0 (=100).
Same read-out and setting: to B4 belongs 108 % of GpH7-B3/GpL16-k0 (=100).
On the same count and under the same terms, to B5 belongs 108 % of GpH7-B3/GpL16-k0 (=100); to B6, 146 % of GpH7-B3/GpL16-k0 (=100).
For B7, the He/Con_3a was 181 % of GpH7-A5/GpH7-B3/GpL16-k0 (=100).
Turning to B8, the Ho/Con_3a was 110 % of GpH7-B3/GpL16-k0 (=100).
For the molecule B9, the Ho/Con_3a was 102 % of GpH7-B3/GpL16-k0 (=100).
As for B10, the Ho/Con_3a was 252 % of GpH7-B3/GpL16-k0 (=100).
